Assay results reported in paper doi:10.1101/2020.12.04.20244186.

Target: c-KIT extracellular domain (soluble KIT) (UniProt P10721-2 26-516)
Assay: square wave voltammetry

B1: Fc-labeled scrambled control oligo (Au/Fc-control) (ssDNA)
DNA: TGACGGGAGACTTAAAACGCAAGGGGTGCAGCTATCGCGGAGGCCAAGGGTTCAAGTCGACGGGTAGCTAGGTTGGA
modifications: 5'-disulfide (thiol after TCEP, on gold electrode); 3'-NH2 coupled to ferrocene carboxylic acid
B1: no binding.
